This passage reports Kd results from PMC4532469.

In assay [1] the target is LTBP-2 C(H) F2, sub-fragment of human LTBP-2C(H) (six tandem EGF-like motifs, EGFs 9-14) (human). The experiment in a line: ELISA; solid phase binding assay, saturation curve: LTBP-2 or fragment coated on wells, increasing FGF-2 (0–30 ng/ml; 0–1.8 or 0–1.5 nM), 3 h at 37°C; BSA signal subtracted, bound FGF-2 from a standard ELISA curve; Kd by non-linear regression (GraphPad Prism) for a single binding site (Fig 3, Fig 4B, D, E).

Assay [2] deals with recombinant human LTBP-2 central fragment LTBP-2C(H) (human). The assay is described as above.

Turning to “recombinant human fibroblast growth factor-2 (FGF-2) (from UniProt P09038 143-288) (ligand)”, the Kd – broadly, the constant that tells how readily two partners part at equilibrium – in assay [1] is 1.03 nM; in assay [2], 1.02 nM.
